# T1: NAA10^R4S-3xFLAG (human, UniProt P41227 1-235, R4S)
# T1 sequence: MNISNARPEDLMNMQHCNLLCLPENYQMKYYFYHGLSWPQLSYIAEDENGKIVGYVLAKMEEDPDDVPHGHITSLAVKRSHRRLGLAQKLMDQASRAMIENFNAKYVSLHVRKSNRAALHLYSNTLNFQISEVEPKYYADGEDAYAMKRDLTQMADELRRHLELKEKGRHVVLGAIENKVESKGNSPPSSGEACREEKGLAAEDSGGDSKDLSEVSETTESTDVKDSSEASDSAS
# Molecular target: T1, NAA10^R4S-3xFLAG
# Experiment: co-IP
binder,measurement,value
NAA15 (natural protein) MPAVSLPPKENALFKRILRCYEHKQYRNGLKFCKQILSNPKFAEHGETLAMKGLTLNCLGKKEEAYELVRRGLRNDLKSHVCWHVYGLLQRSDKKYDEAIKCYRNALKWDKDNLQILRDLSLLQIQMRDLEGYRETRYQLLQLRPAQRASWIGYAIAYHLLEDYEMAAKILEEFRKTQQTSPDKVDYEYSELLLYQNQVLREAGLYREALEHLCTYEKQICDKLAVEETKGELLLQLCRLEDAADVYRGLQERNPENWAYYKGLEKALKPANMLERLKIYEEAWTKYPRGLVPRRLPLNFLSGEKFKECLDKFLRMNFSKGCPPVFNTLRSLYKDKEKVAIIEELVVGYETSLKSCRLFNPNDDGKEEPPTTLLWVQYYLAQHYDKIGQPSIALEYINTAIESTPTLIELFLVKAKIYKHAGNIKEAARWMDEAQALDTADRFINSKCAKYMLKANLIKEAEEMCSKFTREGTSAVENLNEMQCMWFQTECAQAYKAMNKFGEALKKCHEIERHFIEITDDQFDFHTYCMRKITLRSYVDLLKLEDVLRQHPFYFKAARIAIEIYLKLHDNPLTDENKEHEADTANMSDKELKKLRNKQRRAQKKAQIEEEKKNAEKEKQQRNQKKKKDDDDEEIGGPKEELIPEKLAKVETPLEEAIKFLTPLKNLVKNKIETHLFAFEIYFRKEKFLLMLQSVKRAFAIDSSHPWLHECMIRLFNTAVCESKDLSDTVRTVLKQEMNRLFGATNPKNFNETFLKRNSDSLPHRLSAAKMVYYLDPSSQKRAIELATTLDESLTNRNLQTCMEVLEALYDGSLGDCKEAAEIYRANCHKLFPYALAFMPPGYEEDMKITVNGDSSAEAEELANEI,binding capacity relative to WT,0.5 relative to WT (WT = 1.0)

# Source: publication PMC12000442 (Nature Communications, 2025)
